Assay results taken from patent US20060148030A1, “Nuclear receptor err y 3” (FUJISAWA PHARMACEUTICAL CO., LTD, priority 2002, published 2006).

Biological target: T1, PPARγ (Homo sapiens, UniProt P37231)
T1 construct: expressed in transfected cells; host or cells: CV-1 (African green monkey kidney)
T1 sequence (P37231 1-477 isoform P37231-2): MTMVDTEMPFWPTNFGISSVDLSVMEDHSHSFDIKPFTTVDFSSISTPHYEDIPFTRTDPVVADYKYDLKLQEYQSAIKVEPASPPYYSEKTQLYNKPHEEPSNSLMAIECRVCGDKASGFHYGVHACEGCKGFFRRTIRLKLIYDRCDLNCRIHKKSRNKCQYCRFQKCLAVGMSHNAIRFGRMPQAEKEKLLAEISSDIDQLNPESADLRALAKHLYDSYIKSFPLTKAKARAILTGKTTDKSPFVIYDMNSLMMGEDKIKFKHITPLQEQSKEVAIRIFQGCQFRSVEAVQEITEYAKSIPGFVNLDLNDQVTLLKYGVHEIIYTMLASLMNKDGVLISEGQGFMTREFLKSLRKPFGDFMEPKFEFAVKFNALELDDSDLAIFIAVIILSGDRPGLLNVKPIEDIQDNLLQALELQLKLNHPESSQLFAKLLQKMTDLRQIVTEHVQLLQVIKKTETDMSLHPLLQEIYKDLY
T1 sequence (P19793 1-462 partner): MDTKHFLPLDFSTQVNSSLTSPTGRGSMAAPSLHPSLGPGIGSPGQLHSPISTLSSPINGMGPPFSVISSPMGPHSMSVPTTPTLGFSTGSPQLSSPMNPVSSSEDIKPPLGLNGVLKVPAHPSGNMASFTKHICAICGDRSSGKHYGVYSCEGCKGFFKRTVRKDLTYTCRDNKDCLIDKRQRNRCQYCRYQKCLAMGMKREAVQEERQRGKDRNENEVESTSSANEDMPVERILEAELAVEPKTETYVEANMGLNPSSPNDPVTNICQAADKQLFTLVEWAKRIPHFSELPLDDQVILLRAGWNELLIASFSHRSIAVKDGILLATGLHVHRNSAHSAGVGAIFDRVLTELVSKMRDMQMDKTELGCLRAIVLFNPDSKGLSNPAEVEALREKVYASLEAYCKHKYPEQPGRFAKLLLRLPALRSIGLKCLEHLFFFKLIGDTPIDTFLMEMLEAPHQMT
Assay: Reporter gene assay, ERRγ3 coexisted with PPARγ, pGVP2-PPRE1 in CV-1 cells
Type: cell-based
Details: 10^−6 M rosiglitazone, FIG. 24
Method: Transfection was performed as follows: CV-1 cells were resuspended in DMEM supplemented with 10% fetal bovine serum, 2000 U/l of penicillin G, and 100 mg/l of streptomycin to a concentration of 2×10^5 cells/2.5 ml. This was then seeded to a 6-well plate at 2.5 ml per well, and incubated for 18-24 hours in a CO2 incubator at 37° C. and 5% CO2. 1 μg of each of the expression plasmids for the transcription factors, the luciferase reporter plasmid, and another luciferase reporter plasmid used for normalization of the measured values (pRL-TK), were dissolved in Opti-MEM (Gibco BRL), to a total of 150 μl. […] Luciferase activity was measured using the Dual-Luciferase™ Reporter Assay System (Promega). […] The protocol for measurement was as follows: 50 μl of Luciferase Assay Reagent II was added to each well, stirred for 0.3 seconds, and measured for one second. 50 μl of Stop&Glo™ Reagent was then added, stirred for 0.3 seconds, and measured for one second. The measured values for firefly luciferase activity were corrected by dividing by the value for the Renilla luciferase activity, the internal control. Average values and standard errors were calculated from triplicate samples.
The effect of ligands on the function of ERRγ3 in enhancing the transcriptional activation function of peroxisome proliferator activated receptor (PPAR) α, β, or γ was evaluated using the reporter gene assay (FIG. 24). […]

B1: ERRγ3: novel ERRγ isoform, nuclear receptor protein of 396 amino acids (SEQ ID NO: 2) lacking part of the DNA binding domain (protein, listed as Homo sapiens)
chain: MSNKDRHIDSSCSSFIKTEPSSPASLTDSVNHHSPGGSSDASGSYSSTMNGHQNGLDSPPLYPSAPILGGSGPVRKLYDDCSSTIVEDPQTKCEYMLNSMPKRLCLVCGDIASGYHYGVASCEACKAFFKRTIQGVRLDRVRGGRQKYKRRIDAENSPYLNPQLAQPAKKPYNKIVSHLLVAEPEKIYAMPDPTVPDSDIKALTTLCDLADRELVVIIGWAKHIPGFSTLSLADQMSLLQSAWMEILILGVVYRSLSFEDELVYADDYIMDEDQSKLAGLLDLNNAILQLVKKYKSMKLEKEEFVTLKAIALANSDSMHIEDVEAVQKLQDVLHEALQDYEAGQHMEDPRRAGKMLMTLPLLRQTSTKAVQHFYNIKLEGKVPMHKLFLEMLEAKV
modifying effect on the transcriptional stimulation activity of PPARγ: did not show any significant modifying effect
